These results are taken from patent US20250230251A1.

This test concerns the target extracellular matrix (ECM) proteins. As to the kind of experiment: ECM (Matrigel) ELISA, 1 µM antibody. (In general: An ELISA detects its analyte on a solid surface through an enzyme-linked reagent.)

high control mAb (antibody) came in with an ECM score of 24.2. low control mAb (antibody) registered an ECM score of 1.1.
